# Measurements published in patent US20250109212A1.
# Biological target: full length human CD47 (NCBI #NP_942088.1) on 293F-CD47 cells (human) (UniProt Q08722)
# Assay: cell-based blocking FACS on 293F-CD47 cells, blocked ligand biotin-labeled human CD172a-Fc, MFI
row,IC50,Binder
1,1.8 nM,"BSI038×S-004 (bispecific antibody, human IgG2, kappa) heavy: EEELQVIQPDKSVSVAAGESAILHCTITSLIPVGPIQWFRGAGPARELIYNQREGHFPRVTTVSETTKRENMDFSISISNITPADAGTYYCVKFRKGSPDTEFKSGAGTELSVRAKPSAPVVSGPAARATPGGGGSGGGGSEVQLVESGGGLVKPGGSLRLSCAASGFTFSNYGISWVRQAPGKGLEWVSSISSGGDNTYYPDNVKGRFTISRDNAKNSLYLQMNSLRAEDTAVYYCARAGEKAMDYWGQGTLVTVSSASTKGPSVFPLAPCSRSTSESTAALGCLVKDYFPEPVTVSWNSGALTSGVHTFPAVLQSSGLYSLSSVVTVPSSNFGTQTYTCNVDHKPSNTKVDKTVERKCCVECPPCPAPPVAGPSVFLFPPKPKDTLMISRTPEVTCVVVDVSHEDPEVQFNWYVDGVEVHNAKTKPREEQFNSTFRVVSVLTVVHQDWLNGKEYKCKVSNKGLPAPIEKTISKTKGQPREPQVYTLPPSREEMTKNQVSLTCLVKGFYPSDIAVEWESNGQPENNYKTTPPMLDSDGSFFLYSKLTVDKSRWQQGNVFSCSVMHEALHNHYTQKSLSLSPGK light: EIVLTQSPATLSLSPGERATLSCRASQTINNNLHWYQQKPGQAPRLLIKYASQSISGIPARFSGSGSGTDFTLTISSLEPEDFAVYFCQQFSSWPLTFGGGTKVEIKRTVAAPSVFIFPPSDEQLKSGTASVVCLLNNFYPREAKVQWKVDNALQSGNSQESVTEQDSKDSTYSLSSTLTLSKADYEKHKVYACEVTHQGLSSPVTKSFNRGEC"
2,1.73 nM,"BSI038×S-005 (bispecific antibody, human IgG2, kappa) heavy: EEELQVIQPDKSVSVAAGESAILHCTITSLIPVGPIQWFRGAGPARELIYNQREGHFPRVTTVSETTRRENMDFSISISNITPADAGTYYCVKFRKGSPDTEVKSGAGTELSVRAKPSAPVVSGPAARATPGGGGSGGGGSEVQLVESGGGLVKPGGSLRLSCAASGFTFSNYGISWVRQAPGKGLEWVSSISSGGDNTYYPDNVKGRFTISRDNAKNSLYLQMNSLRAEDTAVYYCARAGEKAMDYWGQGTLVTVSSASTKGPSVFPLAPCSRSTSESTAALGCLVKDYFPEPVTVSWNSGALTSGVHTFPAVLQSSGLYSLSSVVTVPSSNFGTQTYTCNVDHKPSNTKVDKTVERKCCVECPPCPAPPVAGPSVFLFPPKPKDTLMISRTPEVTCVVVDVSHEDPEVQFNWYVDGVEVHNAKTKPREEQFNSTFRVVSVLTVVHQDWLNGKEYKCKVSNKGLPAPIEKTISKTKGQPREPQVYTLPPSREEMTKNQVSLTCLVKGFYPSDIAVEWESNGQPENNYKTTPPMLDSDGSFFLYSKLTVDKSRWQQGNVFSCSVMHEALHNHYTQKSLSLSPGK light: EIVLTQSPATLSLSPGERATLSCRASQTINNNLHWYQQKPGQAPRLLIKYASQSISGIPARFSGSGSGTDFTLTISSLEPEDFAVYFCQQFSSWPLTFGGGTKVEIKRTVAAPSVFIFPPSDEQLKSGTASVVCLLNNFYPREAKVQWKVDNALQSGNSQESVTEQDSKDSTYSLSSTLTLSKADYEKHKVYACEVTHQGLSSPVTKSFNRGEC"
3,1.84 nM,SIRPαV2D1M1-Fc (IgG2) (Fc fusion) EEELQVIQPDKSVSVAAGESAILHCTITSLIPVGPIQWFRGAGPARELIYNQREGHFPRVTTVSETTKRENMDFSISISNITPADAGTYYCVKFRKGSPDTEFKSGAGTELSVRAKPSAPVVSGPAARATPGGGGSGGGGSERKCCVECPPCPAPPVAGPSVFLFPPKPKDTLMISRTPEVTCVVVDVSHEDPEVQFNWYVDGVEVHNAKTKPREEQFNSTFRVVSVLTVVHQDWLNGKEYKCKVSNKGLPAPIEKTISKTKGQPREPQVYTLPPSREEMTKNQVSLTCLVKGFYPSDIAVEWESNGQPENNYKTTPPMLDSDGSFFLYSKLTVDKSRWQQGNVFSCSVMHEALHNHYTQKSLSLSPGK
4,2.37 nM,SIRPαV2D1M2-Fc (IgG2) (Fc fusion) EEELQVIQPDKSVSVAAGESAILHCTITSLIPVGPIQWFRGAGPARELIYNQREGHFPRVTTVSETTRRENMDFSISISNITPADAGTYYCVKFRKGSPDTEVKSGAGTELSVRAKPSAPVVSGPAARATPGGGGSGGGGSERKCCVECPPCPAPPVAGPSVFLFPPKPKDTLMISRTPEVTCVVVDVSHEDPEVQFNWYVDGVEVHNAKTKPREEQFNSTFRVVSVLTVVHQDWLNGKEYKCKVSNKGLPAPIEKTISKTKGQPREPQVYTLPPSREEMTKNQVSLTCLVKGFYPSDIAVEWESNGQPENNYKTTPPMLDSDGSFFLYSKLTVDKSRWQQGNVFSCSVMHEALHNHYTQKSLSLSPGK
